In publication PMC8795117, “Structures and function of a tailoring oxidase in complex with a nonribosomal peptide synthetase module” (Nature Communications, 2022):
Several values for one entry are separate records, joined by “and”; a condition that tells them apart may be missing. Equal entries are not always repeated.

Biological target: T1, BmdC (Thermoactinomyces vulgaris F-5595)
T1 construct: BmdC, FMN-dependent oxidase of the bacillamide pathway, Thermoactinomyces vulgaris F-5595 (WP_022737638.1); RREL domain, 45-residue loop, Ox domain (residues 142-325); Co-purifies with FMN; also called oxidase BmdC; dimeric BmdC; source: E. coli BL21(DE3), purified (IMAC, CBP column, TEV cleavage, gel filtration)
Experiment: ITC; 600 μM BmdB A2 injected into 60 μM dimeric BmdC, 25 °C, 50 mM Tris-HCl pH 7.5, 200 mM NaCl, 1 mM TCEP; fitted with a binding model using a stoichiometry of 1; triplicate
Settings: both partners purified

B1: BmdB_A2 (domain or fragment)
chain: YNATAEPIPAATLHQLFIDQAQRTPDQVAVVFEQEWLTYSELDQRSNQVARFLQSRGIGRGDRVGVLAKRQVETIINLMAVLKAGAAYVPIDPDHPYERQTYILENSSCKILLDSDLYETMEISSYADGDLTPVAEPEDTAYVIYTSGSTGRPKGVIITHQAASNTIQDINRKFEVNEEDRIIGISSMCFDLSVYDIFGTLSAGATLVMIRDPRDMRELVRTVERRGITIWNTVPAIMDLALDHVGSHFENISLRLVLLSGDWIPLPLPAKINRHFPVADVISLGGATEASIWSIYWPIEQVEANWKSIPYGKPLANQTYYVLNYDQKMCPVGVIGDLYIGGAGLAQGYLNDDQKTKDAFIMHPEFGPIYKTGDCGRMRPEGYIEFLGRQDYQVKIQGYRVELEEISHCLLTYPDVDQAVVIDQTDERGMKFLVGYVVAQQEIDEKALRKHLMEHLPEYMIPAHLVHLEQLPLTPNGKLDRKALPVPKKQRNAEKFV
Kd: ~75 nM and 44 to 118 nM
